Assay results from patent US20200317768A1 (published 2020).
Changes are numbered by the printed parent chain.

T1: human FcγRIIaR extracellular domain, C-terminal His-tag (human, UniProt P12318 34-217)
T1 construct: also called human FcγRIIa (type R); FcgRIIaR
T1 chain: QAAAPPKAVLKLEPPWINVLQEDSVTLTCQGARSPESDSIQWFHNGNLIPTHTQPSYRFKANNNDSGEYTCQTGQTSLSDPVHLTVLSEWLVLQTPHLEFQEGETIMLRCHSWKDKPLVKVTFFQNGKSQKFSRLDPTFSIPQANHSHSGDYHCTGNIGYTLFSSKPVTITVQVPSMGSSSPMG

T2: cynomolgus monkey FcγRIIa2 extracellular domain, C-terminal His-tag (cynomolgus monkey)
T2 construct: also called cyno FcγRIIa2; cynoFcgRIIa2
T2 chain: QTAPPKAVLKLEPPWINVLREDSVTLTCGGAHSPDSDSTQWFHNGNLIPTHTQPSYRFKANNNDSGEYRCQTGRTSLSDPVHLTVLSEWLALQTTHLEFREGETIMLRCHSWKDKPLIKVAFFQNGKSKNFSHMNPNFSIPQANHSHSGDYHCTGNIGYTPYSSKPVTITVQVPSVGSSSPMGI

T3: human FcγRIIaH extracellular domain, C-terminal His-tag (human, UniProt P12318 34-217)
T3 construct: also called human FcγRIIa (type H); FcgRIIaH
T3 sequence: T1 chain with R134H

T4: cynomolgus monkey FcγRIIb extracellular domain, C-terminal His-tag (cynomolgus monkey)
T4 construct: also called cyno FcγRIIb; cynoFcγRIIb
T4 chain: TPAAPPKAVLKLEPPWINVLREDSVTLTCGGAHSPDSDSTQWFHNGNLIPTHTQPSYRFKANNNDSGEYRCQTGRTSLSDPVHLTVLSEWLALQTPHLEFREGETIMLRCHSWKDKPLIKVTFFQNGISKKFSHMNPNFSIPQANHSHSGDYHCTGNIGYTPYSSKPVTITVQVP

T5: cynomolgus monkey FcγRIIa3 extracellular domain, C-terminal His-tag (cynomolgus monkey)
T5 construct: also called cyno FcγRIIa3; cynoFcgRIIa3
T5 chain: T2 chain with K127I, N130K, H133P, Q142R

T6: cynomolgus monkey FcγRIIIaS extracellular domain, C-terminal His-tag (cynomolgus monkey, UniProt Q8SPW2 21-206 at identity 1.00))
T6 construct: also called cyno FcγRIIIaS; cynoFcγRIIIaS
T6 chain: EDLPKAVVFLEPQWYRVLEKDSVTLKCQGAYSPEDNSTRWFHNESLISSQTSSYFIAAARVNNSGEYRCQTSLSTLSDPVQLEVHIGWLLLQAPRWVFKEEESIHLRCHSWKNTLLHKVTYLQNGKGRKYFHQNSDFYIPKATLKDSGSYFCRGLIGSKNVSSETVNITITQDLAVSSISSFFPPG

T7: human FcγRIIb extracellular domain, C-terminal His-tag (human, UniProt P31994 43-217)
T7 construct: also called human FcgRIIb; FcgRIIb
T7 sequence: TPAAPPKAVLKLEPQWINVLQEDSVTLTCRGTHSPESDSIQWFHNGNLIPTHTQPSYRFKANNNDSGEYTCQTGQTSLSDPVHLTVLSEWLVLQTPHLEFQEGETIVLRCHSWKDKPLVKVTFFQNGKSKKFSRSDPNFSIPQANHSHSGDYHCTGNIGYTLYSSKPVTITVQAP

T8: cynomolgus monkey FcγRIIa1 extracellular domain, C-terminal His-tag (cynomolgus monkey)
T8 construct: also called cyno FcγRIIa1; cynoFcgRIIa1
T8 chain: T2 chain with T95P, A121T, K127I, S128A, N130K, N135D, Q142R

B1: M103205H795-MY206/M103202L889-SK1 (antibody, human IgG1, kappa)
heavy: QVTLKESGPVLVKPTETLTLTCTVSGIDLSHDDISWVRQAPGKGLEWVGIISYAGSTYYASWAKGRLTISKDTSKNQVVLTMTNMDPVDTATYYCARGVPAYSHGGDLWGQGTLVTVSSASTKGPSVFPLAPSSKSTSGGTAALGCLVKDYFPEPVTVSWNSGALTSGVHTFPAVLQSSGLYSLSSVVTVPSSSLGTQTYICNVNHKPSNTKVDKKVEPKSCDKTHTCPPCPAPELLNGPVVFLFPPKPKDTLMISRTPEVTCVVVDVSDEDPEVKFNWYVDGVEVHNAKTKPREELYNSTYRVVSVLTVLHQDWLNGKEYKCKVSNKALPKPIEKTISKAKGQPREPQVYTLPPSREEMTKNQVSLTCLVKGFYPSDIAVEWESNGQPENNYKTTPPVLDSDGSFFLYSKLTVDKSRWQQGNVFSCSVMHEALHNHYTQKSLSLSP
light: DIVMTQSPATLSLSPGERATLSCTSSQSVYHANWLSWFQQKPGQPPKLLIYWASTLAYGVPSRFSGSGSGTDFTLTISSLQPEDAATYYCAGGYGGGRYAFGQGTKVEIKRTVAAPSVFIFPPSDEQLKSGTASVVCLLNNFYPREAKVQWKVDNALQSGNSQESVTEQDSKDSTYSLSSTLTLSKADYEKHKVYACEVTHQGLSSPVTKSFNRGEC
notes: Substitutions introduced into M103205H795-SG1; expressed with M103202L889-SK1 as light chain
B2: M103205H795-MY210/M103202L889-SK1 (antibody, human IgG1, kappa)
heavy: B1 heavy with V241S, L297Q, K328T
light: B1 light
notes: as for B1
B3: M103205H795-MY211/M103202L889-SK1 (antibody, human IgG1, kappa)
heavy: B1 heavy with L297Q, K328T
light: B1 light
notes: as for B1
B4: M103205H795-MY288/M103202L889-SK1 (antibody, human IgG1, kappa)
heavy: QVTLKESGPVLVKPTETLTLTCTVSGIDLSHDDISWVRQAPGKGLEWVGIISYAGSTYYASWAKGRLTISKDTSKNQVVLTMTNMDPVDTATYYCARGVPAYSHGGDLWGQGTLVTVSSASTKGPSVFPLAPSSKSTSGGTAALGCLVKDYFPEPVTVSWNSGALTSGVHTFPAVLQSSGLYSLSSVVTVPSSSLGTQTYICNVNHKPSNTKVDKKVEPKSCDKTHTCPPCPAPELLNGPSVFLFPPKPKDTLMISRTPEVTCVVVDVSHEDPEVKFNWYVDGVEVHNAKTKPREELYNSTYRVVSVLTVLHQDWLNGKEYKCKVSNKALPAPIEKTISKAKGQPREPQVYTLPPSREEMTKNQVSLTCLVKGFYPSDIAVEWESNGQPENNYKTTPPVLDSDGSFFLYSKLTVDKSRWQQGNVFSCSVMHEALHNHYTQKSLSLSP
light: B1 light
notes: as for B1
B5: M103205H795-MY212/M103202L889-SK1 (antibody, human IgG1, kappa)
heavy: B1 heavy with K328T
light: B1 light
notes: as for B1
B6: M103205H795-MY208/M103202L889-SK1 (antibody, human IgG1, kappa)
heavy: B1 heavy with V241S, K332A
light: B1 light
notes: as for B1
B7: M103205H795-MY207/M103202L889-SK1 (antibody, human IgG1, kappa)
heavy: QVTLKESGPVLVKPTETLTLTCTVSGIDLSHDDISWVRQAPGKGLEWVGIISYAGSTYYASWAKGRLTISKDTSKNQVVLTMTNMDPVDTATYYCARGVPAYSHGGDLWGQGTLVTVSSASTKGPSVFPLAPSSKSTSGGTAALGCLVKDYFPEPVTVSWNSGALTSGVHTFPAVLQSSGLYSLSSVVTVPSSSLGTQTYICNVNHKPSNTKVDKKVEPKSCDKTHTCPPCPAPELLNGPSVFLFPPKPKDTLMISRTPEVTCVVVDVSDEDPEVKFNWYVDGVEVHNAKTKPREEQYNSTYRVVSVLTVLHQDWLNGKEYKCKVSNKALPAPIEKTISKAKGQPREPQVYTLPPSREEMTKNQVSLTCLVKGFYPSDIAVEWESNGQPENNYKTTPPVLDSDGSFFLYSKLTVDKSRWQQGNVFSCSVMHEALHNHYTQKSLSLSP
light: B1 light
notes: as for B1
B8: M103205H795-MY209/M103202L889-SK1 (antibody, human IgG1, kappa)
heavy: B1 heavy with V241S, K328T
light: B1 light
notes: as for B1

Target: T1, human FcγRIIaR extracellular domain, …
Experiment: SPR (Biacore), antibody captured, FcgR analyte
Protocol: (§1) The kinetic analysis of interactions between these antibodies and FcγR was carried out using BIACORE® T200 or BIACORE® 4000 (GE Healthcare). HBS-EP+ (GE Healthcare) was used as the running buffer, and the measurement temperature was set to 25° C. A chip produced by immobilizing Protein A. Protein A/G or mouse anti-human IgG kappa light chain (BD Biosciences) onto a Series S Sensor Chip CM4 or CM5 (GE Healthcare) by the amine-coupling method was used. […] After the measurement, the antibody captured on the chip was washed off by allowing reaction with 10 mM glycine-HCl, pH1.5 and 25 mM NaOH so that the chip was regenerated and used repeatedly. The sensorgrams obtained as measurement results were analyzed by the 1:1 Langmuir binding model using the BIACORE® Evaluation Software to calculate the binding rate constant ka (L/mol/s) and dissociation rate constant kd (l/s), and the dissociation constant KD (mol/L) was calculated from these values. […] Regarding such interactions, KD values were calculated using the following 1:1 binding model described in BIACORE® T100 Software Handbook BR1006-48 Edition AE.
(§2) The behavior of interacting molecules according to the 1:1 binding model on BIACORE® can be described by Equation 1: Req=C·R max/(KD+C)+RI, wherein, Req is a plot of steady-state binding levels to analyte concentration. C is concentration, RI is bulk refractive index contribution in the sample, and Rmax is analyte binding capacity of the surface. When this equation is rearranged, KD can be expressed as Equation 2: KD=C·Rmax/(Req−RI)−C. KD can be calculated by substituting the values of Rmax, RI, and C into Equation 1 or Equation 2. From the current measurement conditions, RI=0, C=2 μmol/L can be used.

Kd [µM] | Binder
1.4 | B1
0.014 | B2
13 | B3
8.5 | B4
1.3 | B5
21 | B6
2.8 | B7
0.68 | B8

Target: T2, cynomolgus monkey FcγRIIa2 …
Experiment: SPR (Biacore), antibody captured, FcgR analyte
Protocol: as §1, §2

Kd [µM] | Binder
0.79 | B1
0.84 | B2
0.53 | B3
2 | B4
0.53 | B5
1.5 | B6
1.4 | B7
0.69 | B8

Target: T3, human FcγRIIaH extracellular domain, …
Experiment: SPR (Biacore), antibody captured, FcgR analyte
Protocol: as §1, §2

Kd [µM] | Binder
1 | B1
0.88 | B2
1.1 | B3
1.4 | B4
0.8 | B5
0.53 | B6
13 | B7
0.57 | B8

Target: T4, cynomolgus monkey FcγRIIb extracellular …
Experiment: SPR (Biacore), antibody captured, FcgR analyte
Protocol: as §1, §2

Kd [µM] | Binder
0.45 | B1
0.25 | B2
0.47 | B3
3.2 | B4
0.37 | B5
0.64 | B6
0.82 | B7
0.19 | B8

Target: T5, cynomolgus monkey FcγRIIa3 …
Experiment: SPR (Biacore), antibody captured, FcgR analyte
Protocol: as §1, §2

Kd [µM] | Binder
5 | B1
23 | B2
2.7 | B3
11 | B4
29 | B5
5.7 | B6
69 | B7
19 | B8

Target: T9, human FcγRIIIaV extracellular domain, C-terminal His-tag (human, UniProt P08637 17-208)
T9 construct: also called human FcgRIIIaV; FcgRIIIaV
T9 sequence (P08637 17-208 F176V): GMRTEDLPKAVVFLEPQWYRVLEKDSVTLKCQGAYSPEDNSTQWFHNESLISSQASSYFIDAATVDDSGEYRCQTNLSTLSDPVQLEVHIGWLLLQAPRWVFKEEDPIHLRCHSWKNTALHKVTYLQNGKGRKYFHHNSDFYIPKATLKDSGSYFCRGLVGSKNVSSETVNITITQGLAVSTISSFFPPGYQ
Experiment: SPR (Biacore), antibody captured, FcgR analyte
Protocol: as §1, §2

Kd [µM] | Binder
8.2 | B1
51 | B2
4.8 | B3
68 | B4
6.5 | B5
10 | B6
8 | B7
14 | B8

Target: T6, cynomolgus monkey FcγRIIIaS …
Experiment: SPR (Biacore), antibody captured, FcgR analyte
Protocol: as §1, §2

Kd [µM] | Binder
5.3 | B1
2.4 | B2
5 | B3
13 | B4
2.6 | B5
2.8 | B6
4.1 | B7
2.2 | B8

Target: T7, human FcγRIIb extracellular domain, …
Experiment: SPR (Biacore), antibody captured, FcgR analyte
Protocol: as §1, §2

Kd [µM] | Binder
0.8 | B1
0.98 | B2
0.52 | B3
6.2 | B4
0.63 | B5
12 | B6
1.6 | B7
0.5 | B8

Target: T8, cynomolgus monkey FcγRIIa1 …
Experiment: SPR (Biacore), antibody captured, FcgR analyte
Protocol: as §1, §2

Kd [µM] | Binder
0.52 | B1
0.95 | B2
0.75 | B3
1.5 | B4
0.56 | B5
1.2 | B6
1.5 | B7
0.83 | B8
